Results on 11 substances are retold here after article PMC2250751.

The target in experiment [1] is T54R SOD1 (human) (UniProt P00441). Briefly: SEC; zinc-reconstituted form; gel filtration chromatography; 100 µM (as dimer), 20 mM phosphate pH 7; no larger species also after more than a month at 37°C. For orientation: SEC sorts molecules by how far they enter the pores of the column.
Experiment [2] has the same target. Kind of experiment: SEC; metal-free (apo) form at time zero, before incubation; gel filtration chromatography.
Experiment [3] has as its target G93A SOD1 (human) (UniProt P00441). Briefly: SEC; zinc-reconstituted form; gel filtration chromatography; 100 µM (as dimer), 20 mM phosphate pH 7; no larger species also after more than a month at 37°C.
For experiment [4] the target is unchanged. Briefly: SEC; metal-free (apo) form at time zero, before incubation; gel filtration chromatography.
In experiment [5] the target is I35T SOD1 (human) (UniProt P00441). Kind of experiment: SEC; zinc-reconstituted form; gel filtration chromatography; 100 µM (as dimer), 20 mM phosphate pH 7; no larger species also after more than a month at 37°C.
For experiment [6] the target is unchanged. Briefly: SEC; metal-free (apo) form at time zero, before incubation; gel filtration chromatography.
Experiment [7] concerns the target G93D SOD1 (human) (UniProt P00441). Kind of experiment: SEC; zinc-reconstituted form; gel filtration chromatography; 100 µM (as dimer), 20 mM phosphate pH 7; no larger species also after more than a month at 37°C.
For experiment [8] the target is unchanged. Briefly: SEC; metal-free (apo) form at time zero, before incubation; gel filtration chromatography.
Experiment [9] addresses I113T SOD1 (human) (UniProt P00441). Briefly: SEC; zinc-reconstituted form; gel filtration chromatography; 100 µM (as dimer), 20 mM phosphate pH 7; no larger species also after more than a month at 37°C.
The target is the same in experiment [10]. Kind of experiment: SEC; metal-free (apo) form at time zero, before incubation; gel filtration chromatography.
The target of experiment [11] is I113F SOD1 (human) (UniProt P00441). Kind of experiment: SEC; zinc-reconstituted form; gel filtration chromatography; 100 µM (as dimer), 20 mM phosphate pH 7; no larger species also after more than a month at 37°C.
Experiment [12] has the same target. Kind of experiment: SEC; metal-free (apo) form at time zero, before incubation; gel filtration chromatography.
In experiment [13] the target is L144F SOD1 (human) (UniProt P00441). Briefly: SEC; zinc-reconstituted form; gel filtration chromatography; 100 µM (as dimer), 20 mM phosphate pH 7; no larger species also after more than a month at 37°C.
The target is the same in experiment [14]. Kind of experiment: SEC; metal-free (apo) form at time zero, before incubation; gel filtration chromatography.
Experiment [15] addresses V97M SOD1 (human) (UniProt P00441). Kind of experiment: SEC; zinc-reconstituted form; gel filtration chromatography; 100 µM (as dimer), 20 mM phosphate pH 7; no larger species also after more than a month at 37°C.
Experiment [16] shares this target. Kind of experiment: SEC; metal-free (apo) form at time zero, before incubation; gel filtration chromatography.
Experiment [17] addresses D90A SOD1 (human) (UniProt P00441). Briefly: SEC; zinc-reconstituted form; gel filtration chromatography; 100 µM (as dimer), 20 mM phosphate pH 7; no larger species also after more than a month at 37°C.
Experiment [18] shares this target. Kind of experiment: SEC; metal-free (apo) form at time zero, before incubation; gel filtration chromatography.
Experiment [19] concerns the target V87M SOD1 (human) (UniProt P00441). Kind of experiment: SEC; zinc-reconstituted form; gel filtration chromatography; 100 µM (as dimer), 20 mM phosphate pH 7; no larger species also after more than a month at 37°C.
For experiment [20] the target is unchanged. Kind of experiment: SEC; metal-free (apo) form at time zero, before incubation; gel filtration chromatography.
The target of experiment [21] is L67V SOD1 (human) (UniProt P00441). Kind of experiment: SEC; zinc-reconstituted form; gel filtration chromatography; 100 µM (as dimer), 20 mM phosphate pH 7; no larger species also after more than a month at 37°C.
Experiment [22] has the same target. Briefly: SEC; metal-free (apo) form at time zero, before incubation; gel filtration chromatography.

Turning to “T54R SOD1 (from UniProt P00441 8-154) (enzyme)”, the stoichiometry N in the experiment with T54R SOD1 (human) [1] and with T54R SOD1 (human) [2] was 2 each time.

With “G93A SOD1 (from UniProt P00441 8-154) (enzyme)”, the stoichiometry N with G93A SOD1 (human) [3] and with G93A SOD1 (human) [4] was 2 in each case.

On to “I35T SOD1 (from UniProt P00441 8-154) (enzyme)”, for which the stoichiometry N with I35T SOD1 (human) [5] and in the experiment with I35T SOD1 (human) [6] was 2 throughout.

Turning to “G93D SOD1 (from UniProt P00441 8-154) (enzyme)”, the stoichiometry N with G93D SOD1 (human) [7] and with G93D SOD1 (human) [8] was 2 in each case.

As to “I113T SOD1 (from UniProt P00441 8-154) (enzyme)”, the stoichiometry N with I113T SOD1 (human) [9] and with I113T SOD1 (human) [10] was 2 throughout.

Consider “I113F SOD1 (from UniProt P00441 8-154) (enzyme)”, for which the stoichiometry N with I113F SOD1 (human) [11] and in the experiment with I113F SOD1 (human) [12] was 2 each time.

As for “L144F SOD1 (from UniProt P00441 8-154) (enzyme)”, the stoichiometry N in the experiment with L144F SOD1 (human) [13] and with L144F SOD1 (human) [14] was 2 throughout.

As for “V97M SOD1 (from UniProt P00441 8-154) (enzyme)”, the stoichiometry N with V97M SOD1 (human) [15] and in the experiment with V97M SOD1 (human) [16] was 2 throughout.

As for “D90A SOD1 (from UniProt P00441 8-154) (enzyme)”, the stoichiometry N with D90A SOD1 (human) [17] and with D90A SOD1 (human) [18] was 2 in each case.

For “V87M SOD1 (from UniProt P00441 8-154) (enzyme)”, the stoichiometry N in the experiment with V87M SOD1 (human) [19] and in the experiment with V87M SOD1 (human) [20] was 2 in each case.

In the case of “L67V SOD1 (from UniProt P00441 8-154) (enzyme)”, the stoichiometry N in the experiment with L67V SOD1 (human) [21] and in the experiment with L67V SOD1 (human) [22] was 2 each time.
